assay: yeast display, Sf9 membrane polyspecificity reagent, FACS + sequencing; frameworks hold sequencing errors
In short: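 Sorting gates, low and high (top ~1%), were placed on anti-HA fluorescence to track expression and on streptavidin fluorescence to track reagent binding. A clone's polyreactivity label is taken from the gate it came out of. The reagent was 10% biotinylated, detergent-solubilized Sf9 membrane, applied for 1 hour at 4 °C to galactose-induced yeast display cells.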

Row | Sequence | polyreactivity (PSR sort gate)
1 | QVQLVESGGGLVQAGGSLRLTCAASGTFFMGWYRQAPGKERELVAGISISDGSTYYADSVKGRFTISRDNAKNTVYLQMNSLKPEDTAVYYCAADSHYLYDYWGQGTQVTVSS | low polyreactivity
2 | QVQLVESGGGLVQAGGSLRLTCAASGYTFRRTGMGWYRQAPGKERELVAAITNGGSTKYADSVKGRYTISRDNAKNTVYLQMNSLKPEDTAVYDCFYYVYAYDYWGQGTQVTLSS | high polyreactivity
3 | QVQLVESGGGLVQAGGSLRLTCAATGSILSRYAMGWYRLAPGKERELVATITRRGGSTFYADSVKGRFTISRDIAKNTVYLQMNSLKPEDTAVYYCAVGRLFWGQGTQVTVSS | low polyreactivity
4 | QVQLVESGGGLVQAGGSLRLTCADTGNIFVRNAMGWYRQAPGKERELVADISTGADTNYADSVKGRFTISRDNAKNTFYLQKNSLKPEDTAVYYCAAAAEVGEIGYWPMVYWGQVTQVTVSS | high polyreactivity
5 | QVQLVESGGGLVQAGGSLRLTCDASGFTFPFYTMGWYRQEPGKERELVAAISASGGRTYYADSVKGRFTISRDNAKNTVYLQMNSLKPEDTGVYYCATYPTPKYFRWRGDYWGQGTQVTVSS | high polyreactivity
6 | QVQLVESGGGLVQAGGSLRLTCDASGSTFYPYAMGWYRQAPWKERELVAAISSRDGRTYYADSVKGRFTISRDNAKNTVYLQMNSLKPEDTAVYYCAATSFNNGHRYDYWGQGTQVTVSS | high polyreactivity
7 | QVQLVESGGGLVQAGGSLRLTCSASGYTFPRYAMGWYRQAPGKERELVAVITRRGGSTYYADSVKGRFTISRDNAKNTVYLQMNSLKPEDTSVYYCAASDPSNKSSRPGYSYDSDSWGQGTQVTVSS | high polyreactivity
8 | QVQLVESGGGLVQAGGSLRLTFAASGRTFGYYAMGWSRQAPGKEREWVAAISWSGTSTYYADSVKGRFTISRDNAKNTVYLQLNSLKPEDTAVYYCNAVNVAVQWTSRYYYWGHGTQVTVSS | high polyreactivity
9 | QVQLVESGGGLVQAGGSLRLTSAASGRIFSHNAMGWCRPAPGKERELVAAITVGGGSTFYADSVKGRFTISRDNAKNTVYLQMNSLKPEDTAVYYCAADYYTQWQTRYDYWGQGTQVTVSS | low polyreactivity
10 | QVQLVESGGGLVQAGGSLRLTWAASGSTYESNAMGWYRPAPGKERELVAAISSSGGSTYYADSVKGRFTITRDNAKNTVYLQMNSLKPEDTAVYYGNKGGLSDYDYWGQGTQVTVSS | high polyreactivity
11 | QVQLVESGGGLVQAGGSLRSSCAASGYTFRYYAMGWSRQAPGKERELVAAITSSSNTTYADSVKGRFTISRDNEKNTVYLQMNSLKPDDTGVYYCNTPYFTGYYWGQGTQVTVSS | high polyreactivity
12 | QVQLVESGGGLVQAGGSLRVSCAASGFIFCGYARGWYRQAPGKERELDAAISSSGGSTYYADSVKGRFTISRDNAKNTDYLQMNSLKPEDTAVYYCAKVGRSRRYYYWGQGTQVTVSS | high polyreactivity
13 | QVQLVESGGGLVQAGGSLRVSCAASGFIFHYYAMGWYRQAPGKERELVAAITYSGGSTYYADSVKGRFTISRDNAKNTVYLQMNSMKPVDTAVYYCNADSVLDLYWNMDYWGQVTQVTVSS | low polyreactivity
14 | QVQLVESGGGLVQAGGSLRVSCAASGFIFLNNAMGWYRQAPGKERELVAAITWSGGSTYYADSVKGRFTISRDNAKNTVYLQMKSLKPEDTAVYYCAADGWLYYGVGYWGQGTQVTVSS | low polyreactivity
15 | QVQLVESGGGLVQAGGSLRVSCAASGFTFDQYAMGWYRQAPGKERELVAAISWSGASTYYADSVKGRFTISRDNAKNTDDLQMNSLKPEDTAVYYCAVSRRRIDYDYWGQGTQVTVSS | high polyreactivity
16 | QVQLVESGGGLVQAGGSLRVSCAASGFTFRHNAMGWYRQAPGKERELVAVISSTGTYADSVKGRFTISRDNAKNTVYLQMNSLKPEDTAVYYCAAGSDYGGSYAYDYWGQGTQVTVSS | low polyreactivity
17 | QVQLVESGGGLVQAGGSLRVSCAASGFTFTRYTMGWYRQAPGKEWELVAAITRSGGNTYYADSVKGRFTISRDNAKNTVYLQMNSLKPEDTAVYYCAARQVSGIGPYDYWGQGTQVTVSS | high polyreactivity
18 | QVQLVESGGGLVQAGGSLRVSCAASGNIFVYNAMGWYRQAPGKERELVAAIDSGGSTYYADSVKGRFTISRDNAKNTVYLQMNSLKPEDTAVYYCAADYYSTYRTIYYYWGQGTQVTVSS | low polyreactivity
19 | QVQLVESGGGLVQAGGSLRVSCAASGRIFRYTSGWYRQAPAKERELVATINSCGRTYYADSVKGRFTISRDNAKNTVYLQRNCLKPEDTAVYFCAAPYQTKCNKYVHGSPIENDYWGQGTQVTVSS | low polyreactivity
20 | QVQLVESGGGLVQAGGSLRVSCAASGRTFSGYTMGWYRQAPGKERELVATIRDRGGSTYYADSVKGRFTISRDNAKNTVYLQMNSLTPEDTAVYYCAARRGRRYYYWGQATQVTVSS | high polyreactivity
21 | QVQLVESGGGLVQAGGSLRVSCAASGRTFYANVRGWYRQAPGKERELGAAIAASGGSTYYADSVKGRVTISRDNAKNTVYLQMNRLKPEDTAGYYCYKVVRWPGTYLRYVISDLDYWGQGSQVTVSS | low polyreactivity
22 | QVQLVESGGGLVQAGGSLRVSCAASGRTFYRKAMGWYRHAPGKERSLVAAISSGGSTTYADSVKGRFTISRDNAKNTVYLQMISLKPEDTAVYYCAARSHAGSVCPRLKEYDFWGQGTQVTVSS | low polyreactivity

Row | Sequence | polyreactivity (PSR sort gate)
23 | QVQLVESGGGLVQAGGSLRVSCAASGSIFDVYTMGWYRQAPGKERELVAAISKRSGRTYYADSVKGRFTISRDNAKNTVYLQMNSLKPEDTAVYYCAKDFGYWGQGTQVTVSS | low polyreactivity
24 | QVQLVESGGGLVQAGGSLRVSCAASGSIFPDNAMGWYRQAPGKERELVAAITRGGSTYYADSVKGRFTISRDNAKNTVYLQMNSLKPEDTAVYYCAARRRYLWSYDYWGQGTQVTVSS | high polyreactivity
25 | QVQLVESGGGLVQAGGSLRVSCAASGSIFYQYAMGWYRQAPGKERELVAAISTTGGRTYYADSVKGRFTISRDNAKNTVYLQMNSLKPEDTAVYYCAAYKYYGYDYWGQGTQVTVSS | high polyreactivity
26 | QVQLVESGGGLVQAGGSLRVSCAASGSTFASYAMGWSRQAAGKVWEFVAAICRSGGSTYYADSVKGRFTISRDNAKNTVSFQMNSREPEDPAVYYWAKSRYDYTIPEGGYWGQGTQATVSS | low polyreactivity
27 | QVQLVESGGGLVQAGGSLRVSCAASGYFFHYHAMGWYRHAPGKEREFVAAISQGGGSTYYADSVKGRFTISRDNAKKTVSLQMISLKPEDTAVYYCAADYRSGYREMDYWGQGTQVTVSS | low polyreactivity
28 | QVQLVESGGGLVQAGGSLRVSCAPSGRTFSWYAMGWYRQAPGKEREFVAAIRWSGSSTYYADSVKGRFTISRDNAKNTVYLHMNSLKPEDTAVYYCAVAAGIPQRRYYYWGHGTQVTVSS | high polyreactivity
29 | QVQLVESGGGLVQAGGSLRVSCDASGFTFFYNAMGRYRQAHGKERELVASISSVGRTNYADSVKGRFRISRDNAKNTVYLQMNSLTPEDTAVYFCAAYRAPATRRRGYYYWGLGTQVTVSS | high polyreactivity
30 | QVQLVESGGGLVQAGGSLRVSWAACGSTFYGYGMGWYRQAPWKERELVAAITGSGDTTYYADSVKGRFTISRDNAKNTVYLQMNSLKPEDTAVYYCAADASSKLYEYWGQGTQVTVSS | low polyreactivity
31 | QVQLVESGGGLVQAGGSLSLICAASGRILSGNAMVWYRQAPGKERELVAAITNAGITKYAVSVKGRFTISRDNAKNTVYLQMNSLKPEHTEVYYCASDRYAYKLYDYWGQGTQVTVSS | low polyreactivity
32 | QVQLVESGGGLVQAGGSLSLICAASGRIYPKYAMGWYRQAPGKERELVAGITKRVGSTYYADSVKGRFTISRDNAKHTVYLQMTSLKPEDTAGYYCAKRWVSGPHGYWGQGTQVTVSS | low polyreactivity
33 | QVQLVESGGGLVQAGGSLSLICAASGSTLATYTMGGYRQAPGKERELVAAISFGGSTYYADSVKGRYTISRDNAKNTVYLQMISLKPEDTAVYYCAVYGDSYWGAYYYSDGYWGQGTQVTVSS | low polyreactivity
34 | QVQLVESGGGLVQAGGSLSLRFAASGFIFYRYAMGWYRQAPWKERELVAAITRSVTSTYYADSVKGRFTISRDNAKNTVYLQMNSLKPEDTAVYYCILRSRYDYYYWGQGTQVTVSS | high polyreactivity
35 | QVQLVESGGGLVQAGGSLSLSCAAMGWYRQAPGKERELVATITWSGGSTYYADSVKGRFTISRDNAKNPVYLQMNSLKPEDTAVYYCNARATLLSPANTIRGYDYWGQGTQVTVSS | low polyreactivity
36 | QVQLVESGGGLVQAGGSLSLSCAASGFIFHFNAMGWYIQAPGKEREVVAAISRTGGTTYYADSVKGRFTLSRDNAKNTVYLQMNSLKPEVTAVYYCAAYSTYGQHYDYWGQGTQVTVSS | high polyreactivity
37 | QVQLVESGGGLVQAGGSLSLSCAASGFIFPRYTMGWYRQAPGKERELVAAMTSSGGTNYADSVKGRFTISRDNAKNTVYLQMNSLKPEDTAVYYCAARRRTQQGYGGGYWGQGTQVTVSS | high polyreactivity
38 | QVQLVESGGGLVQAGGSLSLSCAASGFIFVPYAMGLSRQAPGKERELVARITWSGGRTYYADSVKGRFTISRDNAKNTVYLQLNSLKPEDTAVYYCNADVYGFDYWGQGTQVTVSS | high polyreactivity
39 | QVQLVESGGGLVQAGGSLSLSCAASGFTLGYYAMGWYRQAPGKERELVAAITSGGGTNYADSVKGRFTISRDNAKNTVYLQMNSLKPEDTAVYYCAARARWIYGMYSWGQGTQVTVSS | low polyreactivity
40 | QVQLVESGGGLVQAGGSLSLSCAASGGIFAANAMGWYRQAPGKERELVAAITRRGGSTTYADSVKGRFTISRDNAKNTVYLQMNRLKREDTAVYYCNTVYYRFYIELYFSSYDYWGQGTQVTVSS | high polyreactivity
41 | QVQLVESGGGLVQAGGSLSLSCAASGITFGLYTLGWYRQAPGKERELVASISQSGGSTYYADSVKGRFTNSRDNAKNTVYLQMNSQKQEDTAVYYCNARRRFWDFSTRGYDSWGQGTQGTVSS | high polyreactivity
42 | QVQLVESGGGLVQAGGSLSLSCAASGLTFKWNAMGWYRQAPGKEREFVAANTKRAGSTYYADSVKGRFTISRDNAKNTVYIQMNSLKPEDTAVYYCAADDGYFYARYDYWGQGTQVTVSS | low polyreactivity
43 | QVQLVESGGGLVQAGGSLSLSCAASGLTFQEYAMRWYRQAPGKERELVAAISWSGGSTYYADSVKGRFTISRDNAKNTVYLQMNSLKPEDTAVYYCAAEAYEEYITGWYAYDYWGQGTQVTVSS | high polyreactivity
